Assay results as given in US20180155451A1 (published 2018).

T1: FcgRIIa R (human, UniProt P12318 34-217)
T1 construct: extracellular domain; also called FcγRIIa R; FcγRIIa type R; not shown: His tag attached to the C terminus
T1 sequence (looked up): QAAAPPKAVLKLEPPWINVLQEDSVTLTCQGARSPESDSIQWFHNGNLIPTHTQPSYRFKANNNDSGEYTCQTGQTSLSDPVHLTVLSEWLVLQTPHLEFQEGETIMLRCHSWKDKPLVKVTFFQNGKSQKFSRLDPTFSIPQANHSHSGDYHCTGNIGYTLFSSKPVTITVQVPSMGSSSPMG

T2: FcgRIIb (human, UniProt P31994 43-217)
T2 construct: extracellular domain; also called FcγRIIb; not shown: His tag attached to the C terminus
T2 sequence (looked up): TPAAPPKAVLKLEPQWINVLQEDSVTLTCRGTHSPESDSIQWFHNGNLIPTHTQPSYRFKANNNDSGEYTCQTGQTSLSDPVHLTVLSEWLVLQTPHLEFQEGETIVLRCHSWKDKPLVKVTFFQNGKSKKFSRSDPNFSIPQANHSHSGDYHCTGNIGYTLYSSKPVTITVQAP

T3: FcgRIIa H (human, UniProt P12318 34-217)
T3 construct: extracellular domain; also called FcγRIIa H; FcγRIIa type H; not shown: His tag attached to the C terminus
T3 sequence (looked up): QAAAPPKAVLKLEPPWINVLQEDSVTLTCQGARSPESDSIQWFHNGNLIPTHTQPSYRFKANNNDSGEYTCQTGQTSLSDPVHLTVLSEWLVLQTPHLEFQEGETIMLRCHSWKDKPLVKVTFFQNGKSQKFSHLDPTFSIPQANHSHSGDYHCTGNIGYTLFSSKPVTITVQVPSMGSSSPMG


Key:
Test in all cases: SPR (Biacore); KD of H240-Kn061/H240-Hl071/L73-k0 divided by KD of the variant
FcgRIIa R = target: T1, FcgRIIa R
Experimental: (§1) The antibodies were assessed for the binding to each FcgR. […] The resultant value was defined as relative KD, and used as an assessment indicator.
(§2) Analysis of interaction between obj ective antibody and the FcγR was carried out using Biacore T100 (GE Healthcare), Biacore T200, Biacore A100, and Biacore 4000. HBS-EP+ (GE Healthcare) was used as the running buffer, and the measurement temperature was set to 25° C. Chips produced by immobilizing the antigen peptide by the amine coupling method to a Series S sensor Chip CM5 (GE Healthcare), chips produced by allowing preliminarily biotinylated antigen peptides to interact with and immobilize onto a Series S Sensor Chip SA (certified) (GE Healthcare), chips produced by immobilizing Protein L (ACTIGEN, BioVision) to Series S Sencor Chip CM5 (GE Healthcare), or chips produced by immobilizing Protein A/G (Thermo Scientific) to Series S Sencor Chip CM5 (GE Healthcare) were used. Antibodies of interest were captured onto these chips, and allowed to interact to each FcγR diluted with running buffer.

FcgRIIb = target: T2, FcgRIIb
Experimental: as §1, §2

FcgRIIIa F = target: T4, FcgRIIIa F (human, UniProt P08637 17-208)
T4 construct: extracellular domain; also called FcγRIIIa F; 3aF; not shown: His tag attached to the C terminus
Experimental: as §1, §2

FcgRIIa H = target: T3, FcgRIIa H
Experimental: as §1, §2

FcgRIIIa V = target: T5, FcgRIIIa V (human, UniProt P08637 17-208)
T5 construct: extracellular domain; also called FcγRIIIa V; not shown: His tag attached to the C terminus
Experimental: as §1, §2

T4 sequence (P08637 17-208): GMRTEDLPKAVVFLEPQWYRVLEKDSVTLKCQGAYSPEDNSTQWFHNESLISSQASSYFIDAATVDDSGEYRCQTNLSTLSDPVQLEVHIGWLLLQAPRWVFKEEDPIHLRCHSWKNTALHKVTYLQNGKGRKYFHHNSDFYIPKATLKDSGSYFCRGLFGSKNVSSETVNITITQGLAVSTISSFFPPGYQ
T5 sequence (P08637 17-208 F176V limits assumed): as the sequence (P08637 17-208) above, with F160V counted along it

Binder | Relative KD (FcgRIIa R) | Relative KD (FcgRIIb) | Relative KD (FcgRIIIa F) | Relative KD (FcgRIIa H) | Relative KD (FcgRIIIa V)
H240-Kn061 (A231E)/H240-Hl071/L73-k0 (antibody, human IgG1, kappa) heavy 1: QDQLVQSGAEVKKPGASVKVSCKASGFNIKDTYIQWVRQAPGQGLEWMGRIDPLRKQTKYREKFEGRVTITADTSTNTAYMELSSLRSEDTAVYYCVRSGREFDYWGQGTLVTVSSASTKGPSVFPLAPSSKSTSGGTAALGCLVKDYFPEPVTVSWNSGALTSGVHTFPAVLQSSGLYSLSSVVTVPSSSLGTQTYICNVNHKPSNTKVDKKVEPKSCDKTHTCPPCPEPEYYWGPSVFLFPPKPKDTLMISRTPEVTCVVVDVSDEDPEVKFNWYVDGVEVHNAKTKPREEQYNATYRVVSVLTVLHQDWLNGKEYKCKVSNKALPAPIEKTISKAKGQPREPQVCTLPPSRDELTKNQVSLWCLVKGFYPSDIAVEWESNGQPENNYKTTPPVLDSDGSFFLYSKLTVDKSRWQQGNVFSCSVMHEALHNHYTQKSLSLSP heavy 2: QDQLVQSGAEVKKPGASVKVSCKASGFNIKDTYIQWVRQAPGQGLEWMGRIDPLRKQTKYREKFEGRVTITADTSTNTAYMELSSLRSEDTAVYYCVRSGREFDYWGQGTLVTVSSASTKGPSVFPLAPSSKSTSGGTAALGCLVKDYFPEPVTVSWNSGALTSGVHTFPAVLQSSGLYSLSSVVTVPSSSLGTQTYICNVNHKPSNTKVDKKVEPKSCDKTHTCPPCPAPELLGGPSVFLFPPKPKDTLMISRTPEVTCVVVDVSHEDPEVKFNWYVDGVEVHNAKTKPREEQYNSTYRVVSVLTVLHQDWLNGKEYKCKVSNDALPMPIEETISKAKGQPREPQVYTLPPSRCELTKNQVSLSCAVKGFYPSDIAVEWESNGQPENNYKTTPPVLDSDGSFFLVSKLTVDKSRWQQGNVFSCSVMHEALHNHYTQKSLSLSP light: DIQMTQSPSSLSASVGDRVTITCRASQDIHKYIAWYQQKPGQAPRLLIQYTSTLQPGVPSRFSGSGSGTDYTFTISSLQPEDIATYYCLQYEQLRTFGGGTKVEIKRTVAAPSVFIFPPSDEQLKSGTASVVCLLNNFYPREAKVQWKVDNALQSGNSQESVTEQDSKDSTYSLSSTLTLSKADYEKHKVYACEVTHQGLSSPVTKSFNRGEC | 1.7 | 1.4 | 1.8 | 1.6 | 2
H240-Kn061 (A231Q)/H240-Hl071/L73-k0 (antibody, human IgG1, kappa) heavy 1: QDQLVQSGAEVKKPGASVKVSCKASGFNIKDTYIQWVRQAPGQGLEWMGRIDPLRKQTKYREKFEGRVTITADTSTNTAYMELSSLRSEDTAVYYCVRSGREFDYWGQGTLVTVSSASTKGPSVFPLAPSSKSTSGGTAALGCLVKDYFPEPVTVSWNSGALTSGVHTFPAVLQSSGLYSLSSVVTVPSSSLGTQTYICNVNHKPSNTKVDKKVEPKSCDKTHTCPPCPQPEYYWGPSVFLFPPKPKDTLMISRTPEVTCVVVDVSDEDPEVKFNWYVDGVEVHNAKTKPREEQYNATYRVVSVLTVLHQDWLNGKEYKCKVSNKALPAPIEKTISKAKGQPREPQVCTLPPSRDELTKNQVSLWCLVKGFYPSDIAVEWESNGQPENNYKTTPPVLDSDGSFFLYSKLTVDKSRWQQGNVFSCSVMHEALHNHYTQKSLSLSP heavy 2: QDQLVQSGAEVKKPGASVKVSCKASGFNIKDTYIQWVRQAPGQGLEWMGRIDPLRKQTKYREKFEGRVTITADTSTNTAYMELSSLRSEDTAVYYCVRSGREFDYWGQGTLVTVSSASTKGPSVFPLAPSSKSTSGGTAALGCLVKDYFPEPVTVSWNSGALTSGVHTFPAVLQSSGLYSLSSVVTVPSSSLGTQTYICNVNHKPSNTKVDKKVEPKSCDKTHTCPPCPAPELLGGPSVFLFPPKPKDTLMISRTPEVTCVVVDVSHEDPEVKFNWYVDGVEVHNAKTKPREEQYNSTYRVVSVLTVLHQDWLNGKEYKCKVSNDALPMPIEETISKAKGQPREPQVYTLPPSRCELTKNQVSLSCAVKGFYPSDIAVEWESNGQPENNYKTTPPVLDSDGSFFLVSKLTVDKSRWQQGNVFSCSVMHEALHNHYTQKSLSLSP light: DIQMTQSPSSLSASVGDRVTITCRASQDIHKYIAWYQQKPGQAPRLLIQYTSTLQPGVPSRFSGSGSGTDYTFTISSLQPEDIATYYCLQYEQLRTFGGGTKVEIKRTVAAPSVFIFPPSDEQLKSGTASVVCLLNNFYPREAKVQWKVDNALQSGNSQESVTEQDSKDSTYSLSSTLTLSKADYEKHKVYACEVTHQGLSSPVTKSFNRGEC | 1.5 | 1.4 | 1.5 | 1.5 | 1.7
H240-Kn061 (A231V)/H240-Hl071/L73-k0 (antibody, human IgG1, kappa) heavy 1: QDQLVQSGAEVKKPGASVKVSCKASGFNIKDTYIQWVRQAPGQGLEWMGRIDPLRKQTKYREKFEGRVTITADTSTNTAYMELSSLRSEDTAVYYCVRSGREFDYWGQGTLVTVSSASTKGPSVFPLAPSSKSTSGGTAALGCLVKDYFPEPVTVSWNSGALTSGVHTFPAVLQSSGLYSLSSVVTVPSSSLGTQTYICNVNHKPSNTKVDKKVEPKSCDKTHTCPPCPVPEYYWGPSVFLFPPKPKDTLMISRTPEVTCVVVDVSDEDPEVKFNWYVDGVEVHNAKTKPREEQYNATYRVVSVLTVLHQDWLNGKEYKCKVSNKALPAPIEKTISKAKGQPREPQVCTLPPSRDELTKNQVSLWCLVKGFYPSDIAVEWESNGQPENNYKTTPPVLDSDGSFFLYSKLTVDKSRWQQGNVFSCSVMHEALHNHYTQKSLSLSP heavy 2: QDQLVQSGAEVKKPGASVKVSCKASGFNIKDTYIQWVRQAPGQGLEWMGRIDPLRKQTKYREKFEGRVTITADTSTNTAYMELSSLRSEDTAVYYCVRSGREFDYWGQGTLVTVSSASTKGPSVFPLAPSSKSTSGGTAALGCLVKDYFPEPVTVSWNSGALTSGVHTFPAVLQSSGLYSLSSVVTVPSSSLGTQTYICNVNHKPSNTKVDKKVEPKSCDKTHTCPPCPAPELLGGPSVFLFPPKPKDTLMISRTPEVTCVVVDVSHEDPEVKFNWYVDGVEVHNAKTKPREEQYNSTYRVVSVLTVLHQDWLNGKEYKCKVSNDALPMPIEETISKAKGQPREPQVYTLPPSRCELTKNQVSLSCAVKGFYPSDIAVEWESNGQPENNYKTTPPVLDSDGSFFLVSKLTVDKSRWQQGNVFSCSVMHEALHNHYTQKSLSLSP light: DIQMTQSPSSLSASVGDRVTITCRASQDIHKYIAWYQQKPGQAPRLLIQYTSTLQPGVPSRFSGSGSGTDYTFTISSLQPEDIATYYCLQYEQLRTFGGGTKVEIKRTVAAPSVFIFPPSDEQLKSGTASVVCLLNNFYPREAKVQWKVDNALQSGNSQESVTEQDSKDSTYSLSSTLTLSKADYEKHKVYACEVTHQGLSSPVTKSFNRGEC | 1.6 | 1.6 | 1.3 | 1.6 | 1.5
H240-Kn061 (S239I)/H240-Hl071/L73-k0 (antibody, human IgG1, kappa) heavy 1: QDQLVQSGAEVKKPGASVKVSCKASGFNIKDTYIQWVRQAPGQGLEWMGRIDPLRKQTKYREKFEGRVTITADTSTNTAYMELSSLRSEDTAVYYCVRSGREFDYWGQGTLVTVSSASTKGPSVFPLAPSSKSTSGGTAALGCLVKDYFPEPVTVSWNSGALTSGVHTFPAVLQSSGLYSLSSVVTVPSSSLGTQTYICNVNHKPSNTKVDKKVEPKSCDKTHTCPPCPAPEYYWGPIVFLFPPKPKDTLMISRTPEVTCVVVDVSDEDPEVKFNWYVDGVEVHNAKTKPREEQYNATYRVVSVLTVLHQDWLNGKEYKCKVSNKALPAPIEKTISKAKGQPREPQVCTLPPSRDELTKNQVSLWCLVKGFYPSDIAVEWESNGQPENNYKTTPPVLDSDGSFFLYSKLTVDKSRWQQGNVFSCSVMHEALHNHYTQKSLSLSP heavy 2: QDQLVQSGAEVKKPGASVKVSCKASGFNIKDTYIQWVRQAPGQGLEWMGRIDPLRKQTKYREKFEGRVTITADTSTNTAYMELSSLRSEDTAVYYCVRSGREFDYWGQGTLVTVSSASTKGPSVFPLAPSSKSTSGGTAALGCLVKDYFPEPVTVSWNSGALTSGVHTFPAVLQSSGLYSLSSVVTVPSSSLGTQTYICNVNHKPSNTKVDKKVEPKSCDKTHTCPPCPAPELLGGPSVFLFPPKPKDTLMISRTPEVTCVVVDVSHEDPEVKFNWYVDGVEVHNAKTKPREEQYNSTYRVVSVLTVLHQDWLNGKEYKCKVSNDALPMPIEETISKAKGQPREPQVYTLPPSRCELTKNQVSLSCAVKGFYPSDIAVEWESNGQPENNYKTTPPVLDSDGSFFLVSKLTVDKSRWQQGNVFSCSVMHEALHNHYTQKSLSLSP light: DIQMTQSPSSLSASVGDRVTITCRASQDIHKYIAWYQQKPGQAPRLLIQYTSTLQPGVPSRFSGSGSGTDYTFTISSLQPEDIATYYCLQYEQLRTFGGGTKVEIKRTVAAPSVFIFPPSDEQLKSGTASVVCLLNNFYPREAKVQWKVDNALQSGNSQESVTEQDSKDSTYSLSSTLTLSKADYEKHKVYACEVTHQGLSSPVTKSFNRGEC | 4.4 | 3.1 | 3 | 2.1 | 3.4
